Results reported in paper PMC4183573, “Cyclophilin A Associates with Enterovirus-71 Virus Capsid and Plays an Essential Role in Viral Infection as an Uncoating Regulator” (PLoS Pathogens, 2014).
Where no end group is shown, it is not given here.

Biological target: T1, recombinant human CypA without a GST tag (human, UniProt P62937 1-165)
T1 construct: cyclophilin A (CypA), human, cloned into pGEX-6p-1; source: E. coli BL21 (DE3), purified (GST column, PreScission Protease, Superdex-75); not shown: GST, N-terminal, cleaved
Assay: pull-down; recombinant human CypA (200 µg) with 50 µl glutathione-sepharose beads holding GST, GST-1S or GST-1P (200 µg) in 300 µl buffer (50 mM Tris-HCl pH 8.0, 150 mM NaCl, 1% Nonidet P-40, 2 mM EDTA), overnight at 4°C; eluted with GSH; blot for GST and CypA
Conditions: both partners purified

| Binder | binding result |
| --- | --- |
| GSSKPKYPL (also: fused to GST, H-I loop of the capsid protein VP1 of EV71, residues 239-247, with S243P; numbers count on: the VP1 protein, not the polypeptide; source: E. coli BL21 (DE3), held on glutathione-sepharose (GST column) beads; not shown: GST, N-terminal, kept) [GST-1P: H-I loop of EV71 VP1 with the S243P substitution (239-GSSKPKYPL-247) fused to GST] | binds |
| GSSKSKYPL (also: fused to GST, H-I loop of the capsid protein VP1 of EV71, residues 239-247; numbers count on: the VP1 protein, not the polypeptide; source: E. coli BL21 (DE3), held on glutathione-sepharose (GST column) beads; not shown: GST, N-terminal, kept) [GST-1S: peptide of the H-I loop of EV71 VP1 (239-GSSKSKYPL-247) fused to GST] | binds |
